Among the data in patent US20100048468A1 (Amgen, published 2010) are EC50 human, EC50 mouse and IC50 values, retold here.

In assay [1] the target is T1, human GLP-1 receptor (human, UniProt P43220 24-463). The assay is described as follows: cell-based or functional assay.
The target in assay [2] is T2, mouse GLP-1 receptor (mouse, UniProt O35659 22-463).
T2 sequence (looked up): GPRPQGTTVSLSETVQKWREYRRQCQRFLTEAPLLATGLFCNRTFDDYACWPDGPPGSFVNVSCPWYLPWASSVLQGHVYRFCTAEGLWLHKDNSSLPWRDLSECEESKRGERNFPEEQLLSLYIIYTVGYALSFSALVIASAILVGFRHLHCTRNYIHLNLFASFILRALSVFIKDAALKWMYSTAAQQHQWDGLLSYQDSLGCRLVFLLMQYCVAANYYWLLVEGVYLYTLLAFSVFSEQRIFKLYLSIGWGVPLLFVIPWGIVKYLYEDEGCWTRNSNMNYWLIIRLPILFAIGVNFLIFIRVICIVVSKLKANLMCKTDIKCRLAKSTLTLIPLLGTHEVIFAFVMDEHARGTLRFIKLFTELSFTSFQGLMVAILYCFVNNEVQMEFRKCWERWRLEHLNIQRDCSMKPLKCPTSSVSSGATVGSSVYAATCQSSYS
Kind of assay: cell-based or functional assay.

The target of assay [3] is T1, human GLP-1 receptor. The assay is described as follows: 125I-GLP-1 displacement, membranes of CHOK1 cells expressing human GLP-1 receptor.
The target in assay [4] is T1, human GLP-1 receptor. The description is as above. On the procedure: (§1) Membrane Preparation. […] Cells were sedimented at 1500 rpm for 10 minutes. The resulting pellets were homogenized in 15 mls of ice cold sucrose buffer (25 mM Tris-HCl, 0.32 M Sucrose, 0.25 g/L, sodium azide, pH 7.4) with a motorized, glass fitted, Teflon homogenizer. The homogenate was centrifuged at 48,000×g at 4° C. for 10 minutes, resuspended in 25 ml assay buffer (50 mM Tris-HCl, 5 mM MgCl₂, 10 mg/ml protease-free BSA, 0.1 mg/ml STI, and 0.1 mg/ml Pefabloc, pH 7.4) with a Tissue-Tearor (Biospec Products), then centrifuged again at 48,000×g for 10 minutes. The pellets were homogenized for a third time in 15 ml assay buffer using the Tissue-Tearor and again centrifuged at 48,000×g for 10 minutes. The resulting pellet was resuspended in assay buffer at a wet weight concentration of 4 mg/ml.
(§2) Ligand Binding Assay. Binding assays were performed in 96-well U-bottom plates. […] The reaction was terminated by rapid filtration through Unfilter-96 GF/C glass fiber filter plates (FilterMate 196 Packard Harvester, PerkinElmer, Shelton, Conn.) pre-soaked in 0.5% polyethylenimine, followed by three washes with 300 μl of cold 50 mM Tris-HCl, pH 7.4. Bound radioactivity was determined using a TopCount microplate scintillation and luminescence counter (Packard Instrument Company, PerkinElmer, Shelton, Conn.). Nonlinear regression analyses of resulting concentration curves were performed using GraphPad Prism (GraphPad Software, Inc., San Diego, Calif.).
In vitro experiments were conducted to determine receptor binding and potency for a class of molecules having a glycine substitution at position 8, a cysteine substitution at position 22 and a variable C-terminus.

Assay [5] deals with T1, human GLP-1 receptor. The assay is described as follows: cell-based or functional assay. This is another data set of the same source.
For assay [6], the target named is T2, mouse GLP-1 receptor. Kind of assay: cell-based or functional assay. This is another data set of the same source.
For assay [7], the target named is T1, human GLP-1 receptor. Kind of assay: cell-based or functional assay. The source holds these as a separate data set.
Assay [8] concerns the target T2, mouse GLP-1 receptor. Kind of assay: cell-based or functional assay. This is another data set of the same source.
For assay [9], the target named is T1, human GLP-1 receptor. The assay is described as follows: 125I-GLP-1 displacement, membranes of CHOK1 cells expressing human GLP-1 receptor. On the procedure:
as §1, §2
The pegylated molecules were conjugated at the cysteine at position 38.
The source holds these as a separate data set.

In assay [10] the target is T3, mouse GLP-1 receptor (mouse), O35659.
T3 chain: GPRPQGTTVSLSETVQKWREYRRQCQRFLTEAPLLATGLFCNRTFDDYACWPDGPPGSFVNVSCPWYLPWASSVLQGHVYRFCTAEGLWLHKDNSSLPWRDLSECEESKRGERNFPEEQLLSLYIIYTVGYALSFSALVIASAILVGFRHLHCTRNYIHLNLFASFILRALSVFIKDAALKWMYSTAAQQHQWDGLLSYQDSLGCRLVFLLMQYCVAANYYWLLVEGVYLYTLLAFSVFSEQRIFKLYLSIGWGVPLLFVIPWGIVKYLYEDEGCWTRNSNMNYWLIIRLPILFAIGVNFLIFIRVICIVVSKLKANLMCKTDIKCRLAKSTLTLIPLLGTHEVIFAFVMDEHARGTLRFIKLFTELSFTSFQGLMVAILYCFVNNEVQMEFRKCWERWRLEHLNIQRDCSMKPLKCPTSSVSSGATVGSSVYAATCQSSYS
Kind of assay: cell-based or functional assay.

Assay [11] has as its target T1, human GLP-1 receptor. The assay is described as follows: cell-based or functional assay. The source holds these as a separate data set.
For assay [12], the target named is T4, human GLP-1 receptor (human), P43220.
T4 chain: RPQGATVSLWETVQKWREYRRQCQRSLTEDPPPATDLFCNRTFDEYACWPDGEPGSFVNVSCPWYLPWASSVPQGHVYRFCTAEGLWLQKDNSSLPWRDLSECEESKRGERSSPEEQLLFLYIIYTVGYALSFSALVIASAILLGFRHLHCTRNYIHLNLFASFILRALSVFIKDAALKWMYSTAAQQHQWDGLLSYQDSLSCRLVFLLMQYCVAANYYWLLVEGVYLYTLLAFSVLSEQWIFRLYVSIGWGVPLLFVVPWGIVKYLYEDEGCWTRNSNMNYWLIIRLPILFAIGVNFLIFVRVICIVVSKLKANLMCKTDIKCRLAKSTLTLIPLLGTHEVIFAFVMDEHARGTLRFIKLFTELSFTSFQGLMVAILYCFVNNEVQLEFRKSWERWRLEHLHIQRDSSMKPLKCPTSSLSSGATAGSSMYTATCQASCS
Kind of assay: 125I-GLP-1 displacement, membranes of CHOK1 cells expressing human GLP-1 receptor.

For assay [13] the target is unchanged. Kind of assay: cell-based or functional assay.

Like-named read-outs stand apart in the source and are kept apart here. Groups on a side chain read outwards from the residue. No end group written: not given here. maleimide = maleimide group of a PEG-maleimide, coupled to the cysteine thiol (thioether); mPEG 20 kDa = 20 kD mPEG-maleimide, thioether-linked to the Cys; branched PEG 40 kDa = branched polyethylene glycol of 40 kDa

As to “HGEGT FTSDV SSYLE [Aib]QAAK EFIAW LVKGR-AMIDE (SEQ ID NO: 14) (peptide)”, in [1], the EC50 human was found to be 0.016 nM. In assay [2], this molecule gave an EC50 mouse of 0.15 nM. In addition, the IC50 (as a rule, the concentration at which inhibition is half-maximal) in assay [3] turned out to be 2.5 nM.

HGEGTFTSDVSSYLEGCAAKEFIAWLVKGRGSSGAPPPS (Unconjugated peptide) [HGEGTFTSDVSSYLEGCAAKEFIAWLVKGRGSSGAPPPS (SEQ ID NO: 7)] gave an IC50 in assay [4] of 100 nM. Further, the EC50 human in assay [5] came out at 0.1 nM. This molecule also returned an EC50 mouse in assay [6] of 0.8 nM.

B1: cgGLP-14 (SEQ ID NO: 7 + 20k PEG dimer) (peptide)
peptide: HGEGTFTSDVSSYLEGCAAKEFIAWLVKGRGSSGAPPPS
modifications: not fully specified (residue 17); also: dimer: two peptides on one forked PEG-(maleimide)2
Regarding B1, the IC50 in assay [4] is 300 nM. The same molecule yielded an EC50 human in assay [5] of 0.6 nM. In [6], this molecule had an EC50 mouse of 4 nM.

Regarding HGEGTFTSDVSSYLEGCAAKEFIAWLKNGGPSSGAPPPS (Unconjugated peptide) [HGEGTFTSDVSSYLEGCAAKEFIAWLKNGGPSSGAPPPS (SEQ ID NO: 8)], in assay [4], the IC50 amounted to 100 nM. Also, the EC50 human in assay [5] came out at 0.07 nM. Besides, in assay [6], the EC50 mouse was 0.3 nM.

B2: cgGLP-15 (SEQ ID NO: 8 + 20k PEG dimer) (peptide)
peptide: HGEGTFTSDVSSYLEGCAAKEFIAWLKNGGPSSGAPPPS
modifications: not fully specified (residue 17); also: dimer: two peptides on one forked PEG-(maleimide)2
As to B2, the IC50 in assay [4] came out at 300 nM. Moreover, the EC50 human in [5] is 0.8 nM. The molecule further registered an EC50 mouse in assay [6] of 2 nM.

B3: H[Aib]EGT FTSDVSSYLEGQAAKEFIAWLVKGRGCSGG (SEQ ID NO: 11) (peptide)
peptide: HXEGTFTSDVSSYLEGQAAKEFIAWLVKGRGCSGG
modifications: Aib (2-aminoisobutyric acid) at position 8 (GLP-1 numbering; residue 2 of the entry)
notes: Unconjugated peptide
B3 displayed an EC50 human in [7] of 4 nM. Moreover, the EC50 mouse in assay [8] is more than 50 nM. In assay [9], the IC50 came to 100 nM.

B4: cgGLP-17 (SEQ ID NO: 11 + 20k PEG) (peptide)
peptide: HXEGTFTSDVSSYLEGQAAKEFIAWLVKGRGCSGG
modifications: Aib at position 8 (residue 2 of the entry); 20k PEG on the cysteine at position 38 (GLP-1 numbering; residue 32 of the entry)
B4 showed an EC50 human in [7] of 20 nM. For the same molecule, the EC50 mouse in assay [8] is more than 100 nM. The IC50 in assay [9] came to 1000 nM.

With HGEGTFTSDVSSYLEGCAAKEFIAWLVKGRG (modifications not checked) [cgGLP-9 (SEQ ID NO: 6 + 20k PEG dimer)], the EC50 human in assay [1] amounted to 1 nM. In [10], this molecule yielded an EC50 mouse of 9 nM.

B5: cgGLP-3 (SEQ ID NO: 6 + 8k PEG dumbbell) (peptide)
peptide: HGEGTFTSDVSSYLEGCAAKEFIAWLVKGRG
modifications: not fully specified (residue 17); also: dimer: two peptides on one mal-PEG-mal, one at each end
The molecule B5 displayed an IC50 in assay [4] of 84 nM. Moreover, in [5], the EC50 human amounted to 0.2 nM. In assay [6], the EC50 mouse is 5.7 nM.

B6: [Gly8]GLP1(7-37) cyclo[Glu18-Lys22] (SEQ ID NO: 39) (peptide)
peptide: HGEGTFTSDVSSYLEGQEAKEKIAWLVKGRG
modifications: side-chain cyclic lactam between Glu18 and Lys22 (counted on the peptide; GLP-1 positions 24 and 28); C-terminal amide
Regarding B6, the EC50 human in [11] is 0.8 nM.

B7: [Gly8]GLP1(7-37) cyc[Glu15-Lys19] (SEQ ID NO: 36) (peptide)
peptide: HGEGTFTSDVSSYLEGQAKKEFIAWLVKGRG
modifications: side-chain cyclic lactam between Glu15 and Lys19 (counted on the peptide; GLP-1 positions 21 and 25); C-terminal amide
The molecule B7 yielded an EC50 human in assay [11] of 0.15 nM.

Molecule HGEGTFTSDVSSYLEGCAAKEFIAWLVKGRG (Unconjugated peptide) [HGEGTFTSDVSSYLEGCAAKEFIAWLVKGRG (SEQ ID NO: 6)] returned an IC50 in assay [4] of 70 nM. This molecule also showed an EC50 human in [5] of 0.24 nM. For the same molecule, the EC50 mouse in assay [6] stood at 1.4 nM.

B8: [Gly8]cyclo[21-26] GLP1(7-37)-amide (SEQ ID NO: 42) (peptide)
peptide: HGEGTFTSDVSSYLEGQAAKEFIAWLVKGRG
modifications: side-chain cyclic lactam between positions 21 (Glu) and 26 (Lys) (GLP-1 numbering; residues 15 and 20 of the entry); C-terminal amide
With B8, the EC50 human in assay [11] stood at 0.6 nM.

As for HGEGTFTSDVSSYLEGQAAKEFIAWLVKGRGCSG (modifications not checked) [cgGLP-10 (SEQ ID NO: 10 + 20k PEG dimer)], the IC50 in assay [12] is 100 nM. The same molecule gave an EC50 mouse in [10] of 4 nM. In addition, the EC50 human in assay [13] amounted to 0.6 nM.

B9: cgGLP-6 (SEQ ID NO: 10 + 8k PEG dumbbell) (peptide)
peptide: HGEGTFTSDVSSYLEGQAAKEFIAWLVKGRGCSG
modifications: not fully specified (residue 32); also: dimer: two peptides on one mal-PEG-mal, one at each end
As for B9, in assay [7], the EC50 human is approximately 0.1 nM. Moreover, the EC50 mouse in [8] was 0.8 nM. Moreover, the IC50 in assay [9] came to 11 nM.

For the molecule HGEGTFTSDVSSYLEGQAAKEFIAWLVKGRGCSG (not fully specified (residue 32), also called cgGLP-09A) [cgGLP-4 & mgGLP-09A (SEQ ID NO: 10 + 20k PEG)], in assay [7], the EC50 human was 0.23 nM. The molecule further yielded an EC50 mouse in assay [8] of 1.8 nM. The same molecule had an IC50 in [9] of 130 nM.

Regarding HGEGTFTSDVSSYLEGC(PEG 30 kDa)AAKEFIAWLVKGRG [cgGLP-7 (SEQ ID NO: 6 + 30k PEG)], in assay [1], the EC50 human worked out at 0.2 nM. In assay [6], this molecule displayed an EC50 mouse of 2.9 nM.

For the molecule HGEGTFTSDVSSYLEGC([maleimide-mPEG 20 kDa])AAKEFIAWLVKGRG [cgGLP-1 (SEQ ID NO: 6 + 20K PEG)], the EC50 human in [1] was 12 nM. Further, the EC50 mouse in assay [6] came out at 245 nM.

Consider HGEGTFTSDVSSYLEGC(PEG 20 kDa)AAKEFIAWLVKGRGSSGAPPPS [cgGLP-12 (SEQ ID NO: 7 + 20k PEG monomer)], for which, in assay [4], the IC50 amounted to 1000 nM. The molecule also displayed an EC50 human in [5] of 1 nM. This molecule gave an EC50 mouse in assay [6] of 8 nM.

HGEGTFTSDVSSYLEGC(branched PEG 40 kDa)AAKEFIAWLVKGRG [cgGLP-2 (SEQ ID NO: 6 + 40k branched PEG)] displayed an EC50 human in assay [1] of 0.7 nM. In assay [6], this molecule gave an EC50 mouse of 3.6 nM.
